From the nanobody polyreactivity screen of Harvey et al. (2022)

Test: yeast display, Sf9 membrane polyspecificity reagent, FACS + sequencing; frameworks hold sequencing errors
How it was run: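 A nanobody's polyreactivity label depends on the gate it was sorted from. Yeast display cells were stained with 10% biotinylated, detergent-solubilized Sf9 membrane reagent for 1 hour at 4 °C, enriched on streptavidin microbeads and sorted by FACS. The low and high (top ~1%) gates were set on anti-HA fluorescence for expression and streptavidin fluorescence for reagent binding.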

Row | Sequence | polyreactivity (PSR sort gate)
1 | QVQLVESGGCLVQAGCSLRLSCAASGSTLWWYDMGWYRQAPGKERELVAAINSGGSTNYADSVKGRFTISRDNAKNTVYLQMNSLKAEDTAVYYCNTDGEVTYDYWGQGTQVTVSS | low polyreactivity
2 | QVQLVESGGGLVQAGGSLRLSCAASGFTFVYYAMGWYRQAPGKERELVAGISSSAGSTYYADSVKGRFTISRDNAKNTVYLQMNSLKPEDTAVYYCNAEYYWWPFDYWGQGTQVTVSS | high polyreactivity
3 | QVQLVESGGGLVQAGGSLRLSCAASGRIFLYNAMGWYRQAPGKERELVAAITSSGSSTYYADSVKGRFTISRDNAKNTVYLQMNSLKPEDTAVYYCNRYTRKTRRVDYWGQGTQVTVSS | high polyreactivity
4 | QVQLVESGGGLVQAGGSLRLSCAASGSISVANAMGWYRQAPGKERELVAGITSSGSTYYADSVKGRFTISRDNAKNTVYLQMNSLKPEDTAVYYCNADVHYSTFYTVVVSLYYWGQGSQVTVSS | low polyreactivity
5 | QVQLVESGGGLVQAGGTLRLSCSASGSTFAINAMGWYRQPPGKERELVATITSGSNTNNADSVKGRFTISRDNAKNTVDLQMNSLNPEDTAVYYCAAAFGYRFHYGYFYIYDYWGQGTQVTVSS | high polyreactivity
6 | QVQLVESGGGLVQAGGSLRLSCAASGSTFESNTMGWYIQAPGKERELVAAISYSGGRTYYADSVKGRFTISRDNAKNTVYLQMNSLKPEDTAVYYCAARTFRISRMDYWGQGTQVTESS | high polyreactivity
7 | QVQLVESGGGLVQAGGSLRLSCAASGFIFYAYAMGWYRQAPGKERELVAAITSSGSRTYYADSVKGRFTISRDNAKNTVYLQMNSLKPEDTAVYYCNARSGGVRYSNIGTEKYDYWGQGTQVTVSS | low polyreactivity
8 | QVQLVESGGGLVQAGGSLRLSCAASGFIFDGYAMGWYRQAPGKERELVADISSVGSTYYADSVKGRFTISRDNAKNTVYLQMNSLKPEDTAVYYCAAVRFYTYNYWGQGTQVSVSS | low polyreactivity
9 | QVQLVESGGGLVQAGGTLRLSCAASGRIFTINAMGWYRQAPGKEREFVAAISGSGGTTYYADSVKGRFTISRDNAMNTVYLQMNSLKPEDTAVYYCAVSQSWYWYYASDYWGQGTQVTVSS | low polyreactivity
10 | QVQLVESGGGLLLAGGSLRLSCAASGYTFVYNAMGWYRHAPGKEREFVAAITWSGTSTRYADSVKGRFTISRDNAKNNVYLQMKSLKPEDTAVYYCAARRRSAQSGSYNHWGQGTQVTVSS | high polyreactivity
11 | QVQLVESGGGLVQAGGSLRLSCAASGLIFTTNAMGWYRQAPGKERELVAAISTSTGRTYYADSVKGRFTISRDNAKNTVYLQMNSLKPEDTAVYYCARGSRYVGTQRHYYKYDYWGQGTQVTVSS | high polyreactivity
12 | QVQLVESGGGLVQAGGSLRLSCAASGSTFAQNGLGWYRQAPGKERELVAAITSSGSTNYADSVKGRFTISRDNAKNTVYLQMNSLKPEDTAVYYCAKDVLAPYTRHDYWGQGTQVTVSS | low polyreactivity
13 | QVQLVESGGGLVQAGGSLRLSCAASGSTFYNNAMGWYRQAPGKERELVATISASSTSTYYADSVKGRFTISRDNAKNTVYLQMNSLKPEDTAVYYCAKDYVHGSTYGYYWYGYDYWGQGTQVTVSS | low polyreactivity
14 | QVQLVESGGGLVQAGGSLRLTCAASGRTLVPYVMGWYRQAPGKERELVASITSGGSTYYADSVKGRFTISRDNAKNTVYLQMNSLKPEDTAVYYCATRQSAERWGYYYWGQGTQVTVSS | low polyreactivity
15 | QVQLVESGGGLVQAGGSLRLSCAASGITSRRYAMGWYRKAPGKEREFVAAIRTICGSTYYADSVKGRFTISRDNAKNTVYLQMNSLKPEDTAVYYCAARYFLSRSGASHLDSWGQGTQVTVSS | high polyreactivity
16 | QVQLVESGGGLVQAGGSLRLSCAASGFTFRRYAMGWYRQAPGKERELVAAISYGGGRTYYAESVKGRFTISRDNAKNTVYLQMNSLKPEDTAVYYCAADVLSRYVGEADYWGQGTQVTVSS | high polyreactivity

Row | Sequence | polyreactivity (PSR sort gate)
17 | QVQLVESGGGLVQAGGSLRLSCAASGSIFNRNAMGWYRQAPGKERELVASINYSGGSTYYADSVKGRFTISRDNAKNTVYLQMNSLKPEDTAVYYCAADGKTYYRGGGPYYIYYRYDYWGQGTQVTVSS | low polyreactivity
18 | QVQLVESGGGLVQAGGSLRLTCAASGRTFRSYAMGWYRQAPGKERELVAAISDGGSTNYADSVKGRFTISRDNAKNTVYLQMNSLKPEDTAVYYCAAEIFFAVFRFYYWGQGTQVTVSS | low polyreactivity
19 | QVQLVESGGGLVQAGGSLRLSCAASGRIFGLYAMGWYRQAPGKERELVASISQSGANTYYADSVKGRFTISRDNAKNTVYLQMNCQKPEDTAVSYCAAKRYDRYYYWVGYWGQGTQVIVSS | low polyreactivity
20 | QVQLVESGGGLVQAGGSLRLSCAASGITFLQYAVGWYRPAPGKERELVAVISRGSRTYYADSVKGRFTISRDNAKNTVYLQMNSLKPEDTAVYYCAAVRGLAVGYDYWGQGTQVTVSS | high polyreactivity
21 | QVQIVESGGGLVQAGGSLRLSCAASGSTFVENAMGWYRPAPGKERELVAAISSSGDSTFYADSVKGRFTISRDNAKNNVYLQMNSLKPEDTAVYYCAADRRINYDGLDMDYWGQGTQVTVSS | low polyreactivity
22 | QVQLVESGGGLVQAGGSLRLSCAASGSIFDSNTRGWYRQAPGKERELVAAINWSGGRTYYADSVKGRFTISRDNPNNTVYLQMNSLKPEDTAVYYCARPSYYATYYPQPFGYNYWGQGTQVTVSS | high polyreactivity
23 | QVQLVESAGGLVQAGASLRLSCAASGSTFYYYAMGWYRQAPGKERELVAAIDWDSGSTYYADSVKGRFTISRDNAKNTVFLQMNSLNPEDTAVYYCAADSWFSDFDYWGQGTQETVSS | high polyreactivity
24 | QVQLVESGGGLGQAGGSLRLSCAASGSIFSFYAMGWYRQAPGKERELVAVINTDGDNTYYADSVKGRFTISRDNAKNTVYLQMNSLKAEDSAVYYCAASVSSYSYTRGGYWGQGTQVTVSS | high polyreactivity
25 | QVQLVESGGGLVQAGGSLRLSCAASGSIFRYYAMGWYRQAPGKERELVAGITGSTGRTYYADSVKGRFTISRDKAKNTVYLELNSLKPVDTEVYYCSARSRYYEYDYWGQGTQVTVTS | low polyreactivity
26 | QVQLVESGGGLVQAGGSLRLSCAASGSTFVPYALGWYRQAPGKERELVAAITTSGGNTYYADSVKGRFTISRDNAKNTVYLQMNSLKPEDTAVYYCAADTFRRFDYWGQGTQVTVSS | low polyreactivity
27 | QVQLVESGGGLVQAGGSLRLSCAASGFTFYTNAMGWYRQAPGKEREFVAAISFSGGTYYADSVKGRFTISRDNAKNTVYLQMNSLKPEDTAVYYCNARYPRYYRGVIQYDYWGQGTQVTVSS | low polyreactivity
28 | QVQLVESGGGLVQAGGSLRLSCAASGSTFRTNAMGWYRQAPGKERELVAAISGNGGSTYYADSVKGRFTISRDNAKYNVYLQMNSLKAEDTAVYYCAARRGYRYYPPFGYWGQGTQVTVSS | high polyreactivity
29 | QVQLVESGGGLVQAGGSLRLSCAASGSIFGTNAMGWYRQAPGKERELLAAISLSTGSTYYADSVKGRITISRDYAKNTVYLQMNSLKPEDTAVYYCAVRHRYTRAYWGRDYWGQGTQVTVSS | low polyreactivity
30 | QVQLVESGGGLVQAGGSLRLSCAASGSIFYSNAMGWYRQAPGKERELVAAITRRGGSTYYADSVKGRFTISRDNAKNTVYLQMNSLKPEDTAVYYCAARYYRRFAHYGEYGYWGQGTQVTVSS | high polyreactivity
31 | QVQLVESGGGLVQAGGSLRLSCAASGTTFSGNAMGWYRQAPGKERELVAAITRSGSRTYYADSVKGRFTISRDNAKNTVYLQMHSLKPEDTAVYYCAKVGRTGDDYYYWGQGTQVTVSS | high polyreactivity
